Experimental findings from patent US20220112236A1 are described below.

Assay [1] addresses Polyclonal human IgG Gammanorm (human). In words: affinity chromatography column, IgG binding capacity after 24 h in 0.5 M NaOH at room temperature relative to before incubation.
For assay [2] the target is unchanged. In words: affinity chromatography, commercial resin packed in column, polyclonal human IgG (Gammanorm) applied, DBC at 6 min residence time.

Take MabSelect SuRe: in assay [1], the Remaining binding capacity after 24h 0.5M NaOH incubation turned out to be 75.2%. Also, the Dynamic binding capacity at 6 min residence time in assay [2] was determined as 41.8 mg/mL.
